Paper PMC10397247
Where two headings read alike, the source gives them in different places. Blank lines part the entries; values can stand above or below the binder they belong to.

Assays:
Experiment in all cases: two-hybrid library CCmax;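 also: natural log of median RNA to DNA barcode read ratio; higher means stronger binding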
4H483-AA = target: T1, 4H483-AA; conditions: mean of both orientations
T1 chain: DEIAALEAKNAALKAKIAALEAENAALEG

4H63-AA = target: T2, 4H63-AA
T2 chain: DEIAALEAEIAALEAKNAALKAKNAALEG

4H3129-AA = target: T3, 4H3129-AA
T3 chain: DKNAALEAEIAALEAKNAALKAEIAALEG

4H464-AA = target: T4, 4H464-AA; conditions: mean of both orientations
T4 chain: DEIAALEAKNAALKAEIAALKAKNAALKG

4H3414-AA = target: T5, 4H3414-AA; conditions: mean of both orientations
T5 chain: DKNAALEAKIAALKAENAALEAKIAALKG

4H3595-AA = target: T6, 4H3595-AA
T6 chain: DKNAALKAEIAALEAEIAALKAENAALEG

4H3939-AA = target: T7, 4H3939-AA; conditions: mean of both orientations
T7 chain: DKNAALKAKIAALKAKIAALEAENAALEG

4H446-AA = target: T8, 4H446-AA; conditions: mean of both orientations
T8 chain: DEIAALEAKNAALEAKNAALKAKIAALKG

4H3969-AA = target: T9, 4H3969-AA; conditions: mean of both orientations
T9 chain: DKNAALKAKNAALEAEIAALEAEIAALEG

4H380-AA = target: T10, 4H380-AA; conditions: mean of both orientations
T10 chain: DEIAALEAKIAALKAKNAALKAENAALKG

4H3782-AA = target: T11, 4H3782-AA; conditions: mean of both orientations
T11 chain: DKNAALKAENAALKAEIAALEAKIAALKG

4H341-AA = target: T12, 4H341-AA; conditions: mean of both orientations
T12 chain: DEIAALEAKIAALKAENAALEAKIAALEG

4H3629-AA = target: T13, 4H3629-AA
T13 chain: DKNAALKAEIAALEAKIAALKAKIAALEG

4H3049-AA = target: T14, 4H3049-AA; conditions: mean of both orientations
T14 chain: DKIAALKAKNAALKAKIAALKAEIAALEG

4H3449-AA = target: T15, 4H3449-AA; conditions: mean of both orientations
T15 chain: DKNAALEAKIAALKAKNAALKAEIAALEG

4H3619-AA = target: T16, 4H3619-AA; conditions: mean of both orientations
T16 chain: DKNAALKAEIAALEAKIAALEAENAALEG

4H2961-AA = target: T17, 4H2961-AA
T17 chain: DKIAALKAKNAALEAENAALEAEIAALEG

4H3915-AA = target: T18, 4H3915-AA; conditions: mean of both orientations
T18 chain: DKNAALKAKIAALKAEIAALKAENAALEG

4H3094-AA = target: T19, 4H3094-AA; conditions: mean of both orientations
T19 chain: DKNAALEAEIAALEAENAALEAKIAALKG

4H324-AA = target: T20, 4H324-AA; conditions: mean of both orientations
T20 chain: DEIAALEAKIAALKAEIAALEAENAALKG

4H432-AA = target: T21, 4H432-AA; conditions: mean of both orientations
T21 chain: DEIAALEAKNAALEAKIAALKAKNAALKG

4H3974-AA = target: T22, 4H3974-AA; conditions: mean of both orientations
T22 chain: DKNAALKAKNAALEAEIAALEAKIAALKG

4H3777-AA = target: T23, 4H3777-AA; conditions: mean of both orientations
T23 chain: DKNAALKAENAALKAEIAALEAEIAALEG

4H_GCN4 = target: 4H_GCN4
4H_APH = target: T24, 4H_APH
T24 chain: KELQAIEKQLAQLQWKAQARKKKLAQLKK

4H58-AA = target: T25, 4H58-AA
T25 chain: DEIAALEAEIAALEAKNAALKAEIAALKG

4H_BCR = target: T26, 4H_BCR; conditions: mean of both orientations
T26 chain: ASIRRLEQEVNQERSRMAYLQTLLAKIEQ

GCN2_T = target: GCN2_T
4H895-AA = target: T27, 4H895-AA; conditions: mean of both orientations
T27 chain: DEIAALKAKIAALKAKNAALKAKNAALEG

4H_GCN4, sequence (chain, as listed by the source): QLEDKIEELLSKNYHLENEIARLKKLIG

interaction score (4H483-AA): -2.19
interaction score (4H63-AA; mean of both orientations): -2.14
interaction score (4H3129-AA): -1.5
interaction score (4H464-AA): -1.78
interaction score (4H3414-AA): 2.24
interaction score (4H3595-AA; mean of both orientations): -1.39
interaction score (4H3939-AA): -1.82
interaction score (4H446-AA): -2.05
interaction score (4H3969-AA): -1.84
interaction score (4H380-AA): -1.83
interaction score (4H3782-AA): -1.55
interaction score (4H341-AA): 2.19
interaction score (4H3629-AA; mean of both orientations): -0.839
Binder: DKNAALEAEIAALEAKNAALKAEIAALEG [4H3129-AA]

interaction score (4H483-AA): -1.35
interaction score (4H63-AA): -1.2
interaction score (4H3129-AA; mean of both orientations): -1.5
interaction score (4H464-AA): -0.618
interaction score (4H3049-AA): 1.02
interaction score (4H3414-AA): -1.46
interaction score (4H3449-AA): -1.67
interaction score (4H3619-AA): -1.98
interaction score (4H3595-AA): -1.7
interaction score (4H3939-AA): -1.84
interaction score (4H2961-AA): -1.84
interaction score (4H3915-AA): -1.91
interaction score (4H3094-AA): -1.08
interaction score (4H446-AA): 1.97
interaction score (4H324-AA): -1.69
interaction score (4H3969-AA): -1.8
interaction score (4H380-AA): -1.56
interaction score (4H3782-AA): -1.44
interaction score (4H432-AA): -0.0165
interaction score (4H341-AA): -0.961
interaction score (4H3629-AA): -1.26
interaction score (4H3974-AA): -1.82
interaction score (4H3777-AA): -1.97
Binder: DKIAALKAKNAALEAENAALEAEIAALEG [4H2961-AA]

interaction score (4H_GCN4): 0.011
interaction score (4H_APH): -1.68
interaction score (4H58-AA): 1.75
interaction score (4H_BCR): -2.14
interaction score (GCN2_T): -0.172
interaction score (4H895-AA): -0.545
Binder: DEIAALEAEIAALEAKNAALKAEIAALKG [4H58-AA]
